* marks the point of attachment. Palmitoyl = CCCCCCCCCCCCCCCC(=O)*
Target: PTHR1 receptor
Sequence (P25961 whole entry): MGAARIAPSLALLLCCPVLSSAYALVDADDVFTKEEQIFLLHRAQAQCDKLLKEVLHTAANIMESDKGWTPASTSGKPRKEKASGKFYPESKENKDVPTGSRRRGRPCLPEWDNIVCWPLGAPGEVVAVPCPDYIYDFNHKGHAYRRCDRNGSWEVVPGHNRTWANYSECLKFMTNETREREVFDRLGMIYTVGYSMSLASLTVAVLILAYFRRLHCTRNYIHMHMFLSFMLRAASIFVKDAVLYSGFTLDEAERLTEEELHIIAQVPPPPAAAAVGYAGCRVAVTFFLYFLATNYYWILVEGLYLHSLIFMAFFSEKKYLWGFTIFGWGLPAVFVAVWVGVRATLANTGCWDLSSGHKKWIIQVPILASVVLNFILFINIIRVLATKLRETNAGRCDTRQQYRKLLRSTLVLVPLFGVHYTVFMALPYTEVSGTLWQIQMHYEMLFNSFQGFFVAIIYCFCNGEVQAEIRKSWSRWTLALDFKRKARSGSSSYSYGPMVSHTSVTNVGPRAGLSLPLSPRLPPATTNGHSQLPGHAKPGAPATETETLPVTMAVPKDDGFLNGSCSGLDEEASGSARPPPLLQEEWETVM

Fold Shift of EC50 [fold]	Inhibition of Maximal Response [%]	Binder
19	-5.7	Palmitoyl-AGRSDTRQQYRKLLFS-NH2 (SMILES CCCCCCCCCCCCCCCC(=O)N[C@@H](C)C(=O)NCC(=O)N[C@@H](CCCNC(=N)N)C(=O)N[C@@H](CO)C(=O)N[C@@H](CC(=O)O)C(=O)N[C@H](C(=O)N[C@@H](CCCNC(=N)N)C(=O)N[C@@H](CCC(N)=O)C(=O)N[C@@H](CCC(N)=O)C(=O)N[C@@H](Cc1ccc(O)cc1)C(=O)N[C@@H](CCCNC(=N)N)C(=O)N[C@@H](CCCCN)C(=O)N[C@@H](CC(C)C)C(=O)N[C@@H](CC(C)C)C(=O)N[C@@H](Cc1ccccc1)C(=O)N[C@@H](CO)C(N)=O)[C@@H](C)O) [Compound 95]
18.7	-24.4	Palmitoyl-AGRSDTRQQYRKLLFA-NH2 (SMILES CCCCCCCCCCCCCCCC(=O)N[C@@H](C)C(=O)NCC(=O)N[C@@H](CCCNC(=N)N)C(=O)N[C@@H](CO)C(=O)N[C@@H](CC(=O)O)C(=O)N[C@H](C(=O)N[C@@H](CCCNC(=N)N)C(=O)N[C@@H](CCC(N)=O)C(=O)N[C@@H](CCC(N)=O)C(=O)N[C@@H](Cc1ccc(O)cc1)C(=O)N[C@@H](CCCNC(=N)N)C(=O)N[C@@H](CCCCN)C(=O)N[C@@H](CC(C)C)C(=O)N[C@@H](CC(C)C)C(=O)N[C@@H](Cc1ccccc1)C(=O)N[C@@H](C)C(N)=O)[C@@H](C)O) [Compound 94]
13.4	-67	Palmitoyl-TNAGRSDTRQAYRKLL-NH2 (SMILES CCCCCCCCCCCCCCCC(=O)N[C@H](C(=O)N[C@@H](CC(N)=O)C(=O)N[C@@H](C)C(=O)NCC(=O)N[C@@H](CCCNC(=N)N)C(=O)N[C@@H](CO)C(=O)N[C@@H](CC(=O)O)C(=O)N[C@H](C(=O)N[C@@H](CCCNC(=N)N)C(=O)N[C@@H](CCC(N)=O)C(=O)N[C@@H](C)C(=O)N[C@@H](Cc1ccc(O)cc1)C(=O)N[C@@H](CCCNC(=N)N)C(=O)N[C@@H](CCCCN)C(=O)N[C@@H](CC(C)C)C(=O)N[C@@H](CC(C)C)C(N)=O)[C@@H](C)O)[C@@H](C)O) [Compound 93]
2	9.8	Palmitoyl-TNAGRSDTRQQYAKLL-NH2 (SMILES CCCCCCCCCCCCCCCC(=O)N[C@H](C(=O)N[C@@H](CC(N)=O)C(=O)N[C@@H](C)C(=O)NCC(=O)N[C@@H](CCCNC(=N)N)C(=O)N[C@@H](CO)C(=O)N[C@@H](CC(=O)O)C(=O)N[C@H](C(=O)N[C@@H](CCCNC(=N)N)C(=O)N[C@@H](CCC(N)=O)C(=O)N[C@@H](CCC(N)=O)C(=O)N[C@@H](Cc1ccc(O)cc1)C(=O)N[C@@H](C)C(=O)N[C@@H](CCCCN)C(=O)N[C@@H](CC(C)C)C(=O)N[C@@H](CC(C)C)C(N)=O)[C@@H](C)O)[C@@H](C)O) [Compound 91]
5	8.3	Palmitoyl-TNAGRSDTRQQARKLL-NH2 (SMILES CCCCCCCCCCCCCCCC(=O)N[C@H](C(=O)N[C@@H](CC(N)=O)C(=O)N[C@@H](C)C(=O)NCC(=O)N[C@@H](CCCNC(=N)N)C(=O)N[C@@H](CO)C(=O)N[C@@H](CC(=O)O)C(=O)N[C@H](C(=O)N[C@@H](CCCNC(=N)N)C(=O)N[C@@H](CCC(N)=O)C(=O)N[C@@H](CCC(N)=O)C(=O)N[C@@H](C)C(=O)N[C@@H](CCCNC(=N)N)C(=O)N[C@@H](CCCCN)C(=O)N[C@@H](CC(C)C)C(=O)N[C@@H](CC(C)C)C(N)=O)[C@@H](C)O)[C@@H](C)O) [Compound 92]
